Results published in patent US20230104769A1 (MABWELL SHANGHAI BIOSCIENCE, published 2023).
Residue numbers refer to the chain shown, from its start. Names may count otherwise. Values belong to the binder of their own block, whether it stands above or below them.

How the values were obtained:
[1] = target: T1, recombinant human PD-1 protein (NCBI accession No.: NP_005009.2, 21aa-167aa) (human, UniProt Q15116 21-167); assay: BLI Octet QKe, antibody on the sensor, single 100 nM PD-1
T1 construct: range 21-167; also called recombinant human PD-1 extracellular domain protein; PD-1-ECD
Description: Determination of the binding kinetics: the affinity of the antibody was determined with Octet QKe system from Fortebio using an assay of capturing biotin-labeled antibody with streptavidin. […] Both the binding and dissociating were conducted for 300 s.
The comparison of affinity between the variant antibodies and the parent antibody was performed using Octet QKe system supplied by Fortebio.

[2] = target: T2, cynomolgus monkey PD-1 (Cat: 90311-C08H, Sino Biological Inc.) (cynomolgus monkey, UniProt B0LAJ3 25-170); assay: ELISA, plate coated with the PD-1 protein at 1 µg/mL, hybridoma supernatant diluted 100 times
T2 construct: Bought recombinant protein; not shown: The vendor's tag
Description: (§1) A plate was coated with recombinant human PD-1/His protein (NCBI accession No.: NP_005009.2, 21aa-167aa, Lot: 2016.2.22), cynomolgus monkey PD-1 (Cat: 90311-C08H, Sino Biological Inc.), rat PD-1 (Cat: 80448-R08H, Sino Biological Inc.) and mouse PD-1 (Cat: 50124-M08H, Sino Biological Inc.) in a concentration of 1 μg/mL overnight at 4° C., washed three times with PBS subsequently, and 5% BSA-PBS was added for blocking for 60 min at 37° C. The plate was washed three times with PBST afterwards, and supernatants of the hybridiomas diluted 100 times were added and incubated for 60 min at 37° C. Again, the plate was washed four times with PBST, HRP-Goat anti-mouse IgG (Fcγ) (Cat: 115-035-071, Jackson Immuno Research) with a dilution of 1:5000 was added for a 30 min incubation at 37° C. Once again, the plate was washed four times with PBST, and TMB substrate was added for developing color through incubating for 10 min at 37° C., then the reaction was terminated by adding 2 M HCl. With 630 nm as reference wavelength, the absorbance at 450 nm (A450 nm-630 nm) of each well in the plate was read and recorded.

[3] = target: T3, rat PD-1 (Cat: 80448-R08H, Sino Biological Inc.) (rat, UniProt D3ZIN8 25-169); assay: as above
T3 construct: Bought recombinant protein; also called recombinant rat PD-1; not shown: The vendor's tag
T3 sequence: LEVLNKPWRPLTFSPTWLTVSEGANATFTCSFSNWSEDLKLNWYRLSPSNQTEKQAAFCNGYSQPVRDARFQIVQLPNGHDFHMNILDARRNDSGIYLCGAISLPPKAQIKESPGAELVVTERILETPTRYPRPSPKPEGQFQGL
Description: as §1

[4] = target: T4, mouse PD-1 (Cat: 50124-M08H, Sino Biological Inc.) (mouse, UniProt Q02242 25-167); assay: as above
T4 construct: Bought recombinant protein; also called recombinant mouse PD-1
T4 sequence (looked up): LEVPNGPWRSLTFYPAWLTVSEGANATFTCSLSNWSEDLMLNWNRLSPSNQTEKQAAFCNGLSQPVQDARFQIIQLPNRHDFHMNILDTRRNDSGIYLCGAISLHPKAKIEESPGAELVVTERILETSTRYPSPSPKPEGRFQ
Description: as §1

[5] = target: T5, recombinant human PD-1/His protein (NCBI accession No.: NP_005009.2, 21aa-167aa, Lot: 2016.2.22) (human, UniProt Q15116 21-167); assay: BLI (Fortebio BLITZ), antibody captured on AHC sensor, PD-1-His in solution
T5 construct: range 21-167; also called recombinant human PD-1 extracellular domain protein; not shown: His tag
Description: The light chain variable region gene and heavy chain variable region gene of the monoclonal antibody obtained through cloning, with cleavage sites of restriction enzymes introduced by PCR using the following primers (Table 3), were respectively cloned into the upstream of gene encoding human-kappa light chain constant region and the upstream of gene encoding the human IgG4 heavy chain constant region carried in eukaryotic expression vectors. […] The affinity of the antibody was determined by the anti-human antibody capture assay with Fortebio (BLITZ pro1.1.0.28). For the determination, anti-Human IgG Fc Capture (AHC) biosensors were soaked in PBS for 10 min. […] Subsequently, the AHC biosensors were reacted with the diluted recombinant human PD-1-His protein (NCBI accession No.: NP_005009.2, 21aa-167aa, Lot: 2016.2.22) of different concentrations (1 μM, 0.6 μM and 0 nM) for binding for 45 s, and was then transferred into PBS for dissociating for 120 s.

T5 sequence (Q15116 21-167 limits assumed, form in doubt): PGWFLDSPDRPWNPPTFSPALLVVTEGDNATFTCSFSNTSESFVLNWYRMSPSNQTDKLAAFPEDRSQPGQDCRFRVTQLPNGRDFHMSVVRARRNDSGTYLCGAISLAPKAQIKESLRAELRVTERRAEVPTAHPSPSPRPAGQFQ
T1 sequence (Q15116 21-167 limits assumed, form in doubt): as above
T2 sequence (B0LAJ3 entry or part of it C08H C08H limits assumed): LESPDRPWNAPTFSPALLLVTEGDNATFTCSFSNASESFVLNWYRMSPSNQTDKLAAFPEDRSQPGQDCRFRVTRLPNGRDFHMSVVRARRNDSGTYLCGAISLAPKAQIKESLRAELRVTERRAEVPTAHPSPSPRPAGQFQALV

B1: h317 variant antibody, light chain S92D (antibody, V domains shown)
VH: EVQLVESGGGLVKPGGSLRLSCAASGFTFSSYDMSWVRQAPGKGLEWVATISGGGSYTYYPDSVKGRFTISRDNAKNSLYLQMNSLRAEDTAVYYCASPDSSGVAYWGQGTLVTVSS
VL: DIVMTQSPLSLPVTPGEPASITCKASQDVETVVAWYLQKPGQSPRLLIYWASTRHTGVPDRFSGSGSGTDFTLKISRVEAEDVGVYYCQQYDRYPWTFGQGTKL
notes: Variant of h317
Kd [1]: 7.52 nM

B3: h317 variant antibody, light chain W96Y (antibody, V domains shown)
VH: B1 VH
VL: B1 VL with D92S, W96Y
notes: Variant of h317
Kd [1]: 412 nM

B5: h317 variant antibody, light chain V32Y (antibody, V domains shown)
VH: B1 VH
VL: B1 VL with V32Y, D92S
notes: Variant of h317
Kd [1]: 9.81 nM

B7: h317 variant antibody, light chain W96G (antibody, V domains shown)
VH: B1 VH
VL: B1 VL with D92S, W96G
notes: Variant of h317
Kd [1]: 15.3 nM

B8: h317 variant antibody, light chain W50A (antibody, V domains shown)
VH: B1 VH
VL: B1 VL with W50A, D92S
notes: Variant of h317
Kd [1]: 12.3 nM

B9: h317 variant antibody, light chain W50G (antibody, V domains shown)
VH: B1 VH
VL: B1 VL with W50G, D92S
notes: Variant of h317
Kd [1]: 61.4 nM

B11: h317 variant antibody, light chain Y91F (antibody, V domains shown)
VH: B1 VH
VL: B1 VL with Y91F, D92S
notes: Variant of h317
Kd [1]: 47.6 nM

B12: h317 variant antibody, light chain Y91A (antibody, V domains shown)
VH: B1 VH
VL: B1 VL with Y91A, D92S
notes: Variant of h317
Kd [1]: 51.2 nM

B14: Clone 317 (murine antibody 317, hybridoma supernatant) (antibody, mouse IgG1, V domains shown)
VH: EVKLVESGGGLMKPGGSLKLSCAASGFTFSSYDMSWVRQTPEKRLEWVATISGGGSYTYYPDSVKGRFTISRDNAKNNLYLQMSSLRSEDTALYYCASPDSSGVAYWGQGTLVTVSA
VL: DIVMTQSHKFMSTSVGDRVSITCKASQDVETVVAWYQQKPGQSPKLLIYWASTRHTGVPDRFTGSGSGTDFTLTISNVQSEDLADYFCQQYSRYPWTFGGGTKL
notes: tested as hybridoma supernatant
binding result [2]: binds
binding result [3]: no binding (tested: single dilution, no concentration shown)
binding result [4]: no binding (tested: single dilution, no concentration shown)

B15: chimeric antibody 317 (antibody, V domains shown)
VH: B14 VH
VL: B14 VL
Kd [5]: 2.64 nM
koff [5]: 0.000566 s⁻¹
kon [5]: 215000 M⁻¹ s⁻¹

Continued by falling Kd [1], values first:

Kd [1]: 6.81 nM
B6: h317 variant antibody, light chain Y94F (antibody, V domains shown)
VH: B1 VH
VL: B1 VL with D92S, Y94F
notes: Variant of h317

Kd [1]: 6.21 nM
B10: h317 variant antibody, light chain V32A (antibody, V domains shown)
VH: B1 VH
VL: B1 VL with V32A, D92S
notes: Variant of h317

Kd [1]: 3.98 nM
B13: h317 variant antibody, light chain T56S and S92N (antibody, V domains shown)
VH: B1 VH
VL: B1 VL with T56S, D92N
notes: Variant of h317; also called 56S(CDR2) 92N(CDR3)

Kd [1]: 3.49 nM
B4: h317 variant antibody, light chain S92N (antibody, V domains shown)
VH: B1 VH
VL: B1 VL with D92N
notes: Variant of h317

Kd [1]: 3.02 nM
B2: h317 variant antibody, light chain T56S (antibody, V domains shown)
VH: B1 VH
VL: B1 VL with T56S, D92S
notes: Variant of h317
